Assay results published in the nanobody polyreactivity screen of Harvey et al. (2022).

Test: yeast display, Sf9 membrane polyspecificity reagent, FACS + sequencing; frameworks hold sequencing errors
Outline: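 In a synthetic yeast display library (Saccharomyces cerevisiae BJ5465), nanobody expression was induced with galactose for 36–48 hours. FACS gates were set low and high (top ~1%) using anti-HA fluorescence for expression and streptavidin fluorescence for binding of the Sf9 membrane reagent. Each polyreactivity label is drawn from the gate of origin.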

| Sequence | polyreactivity (PSR sort gate) |
| --- | --- |
| QVQLVDSGGGLVQAGCSLRLSCAASGSTFVTNDMGWSRKAPGKERELVAAISSGTSTNYADSVKGRFTISRDNAKNTFYLQMNSLNPEDTAVYYCAADSLKRDDYWGQGTQVTVSS | low polyreactivity |
| QVQLVESGGGLVQAGGSLRLSCAASGNIFDVYAMGWYRQAPGKERELVAAISRSGSSTYYADSVKGRFTISRDNAKNTVYLQMNSLKQEDTAVYYCAAKISLGQRTYYYWGQGTQVTVSS | high polyreactivity |
| HVQLVESGGGFVQAGGSLRLSCAASGITFVKYTMGWYRQAPGKERELVAASSRSDGRTYYADSVKGRFTISRDNAKNSVYLQMNSLKPEDTAVYYCNAVYGVIGKGYNYWGQGTQVTVSS | high polyreactivity |
| QVQLIESGGGLVQAGGSHRLSCAASGRIFAYYAMGWYRQAPGKERELVAGISQRGSRTYYADSVKGRFTISRDNAKNTVYLQMNSLKPEDTAVYYCAARDRRSVTMDYWGQGTQVTVSS | high polyreactivity |
| QVQLVESGGGLVQAGGSLRLSCAASGRTFGGYAMVWYRQAPGKERELVATITKNGGSTYYADSVKGRFTISRDNAKNTVYVQMNSLKPEVTAVYYCATGSRGYKASPQWRDYWGQGTQVTVSS | high polyreactivity |
| QVQLVESGGGLVQAGGSLRLSCAASGRIFDYYAMGWYRQAPGKERELVAAISSSVGNTYYADSVKGRFTISRDNAKNTVYLQMNSLKPEDTAVYYCADYSYVRSSYEVEYDYWGQGTQVTVSS | low polyreactivity |
| QVQLVESGGGLVQAGGSLRLSCAASRSTITYNAMGWYRQAPGKERELVAAISFSGGRTYYADSVKGRFTISRDNAKNIVYLHMNRLKPEDTAVYYCAKRYGASFYYWGQGTQVTVSS | high polyreactivity |
| QVQLQESGGGLVQAGGSQRLSCAASGYIFYFQYMGWYRQAPGKEREFVAAISDGANTNYADSVKGRFTISRDNAKNTEYLQMNSLKPEDTAVYYCAVYADENYYYIYWGQGTQVTVRS | low polyreactivity |
| QVQLVESGGGLVQAGGSLRLSCAASGIIFDTYTMGWTRHSPGKERELVAAITRRGSRTYYADSVKGRFTISRDNAKNTVYLQMNSLKREDTAVYYCNAVPRWSYVDEDSWGQGTQVTVSS | high polyreactivity |
| QVQLVESGGGLVQAGGSLRLSCAASGSIFSSYAMGWYRQAPGKERELVASISRRGGSTYYADSVKGRFTISRDKAKNTVYLQMNSLKPEDTAVYYCTASGGPYRYYYWGQGTQVTVSS | low polyreactivity |
| QVHLVESGGGLVQAGGSLRLSCAASGSIFGYNTMGWYRQAPGKERELVATISGSGGSSYYADSVKGRFTISRDNAKNTVYLQMNSLKPEDTSVYYCAARAYSRYRRTYDYWGQGTQVTVSS | high polyreactivity |
| QVQLLETGGVLVQAGGSLRLSCAASGFIFGINAMGWYRQAPGKERELVATITSGGGTNYADSVKGRFTISRDNAKINVYLQMNSLKPEDSAVYYCNAQIAWATYEGDYWGQGTQVTVSS | low polyreactivity |
| QVQLVESGGGIVQAGGSLRLSCAASGRTLQRNAMGWYRQAPGKERELVAAISWSGASTYYADSVKGRFTISRDNAKNTVYLQMNSLKPEDTAVYYCAATYIDRGNIYDYWGQGTQVTVSS | high polyreactivity |
| QVQLVESGGGLVQAGGSLRLSCAASGFTFYRYARGWYRQAPGKERELVAAISSDGTTYYADSVKGRFTISRDNATNTVYLQMNSLKPEDTAVYYCAKRGYYRSRRYDYWGQGTQVTVSS | high polyreactivity |
| QVQLVESGGGLVQAGGSLRLSCAASGRTFKYYAMGWYRPAPGKERELVAAISYNGGSTFYADSVKGRFTISRDNAKNTVYLQMNSLKPEDTAVYYCAAGPRGTGKYYWGQGTQVTVSS | high polyreactivity |
| HVELVQSCGGLVQAGGSLRLSSAASGRIFSPYVMGWFRQAPGKVRQLVAASRNRGGSTYYAAAVKWRFTISRDNATNTVYIQMNSLKPEDTAVYYCNAPDVSRPLRGRYDYWGQGTQVTVSS | high polyreactivity |

| Sequence | polyreactivity (PSR sort gate) |
| --- | --- |
| QVQLVESGGGLVQAGGSLRLSCAASGSTFWFYALGWYRQAPGKERELVAAISSSGTTTYYADSVKGRFTISRDNAKNTVYLQINSLKPEDTAVSYCAAQYRGSYRTTYDYWGQCTQVTVSS | low polyreactivity |
| QVKRVESGGGIVQAGGSLRLSCAASGSTFHKNVMGWYRQEPGKERELVAAISIIGVRTYYADSVKGRFTISRDNAKNTVYLQINSLKQVDTAVYYCNTDTQNRRGSGRGFWGEGTQVTVSS | high polyreactivity |
| QVQLVESGGGLVQAGGSLRLSCAASGSTLATYTMGWYRQAPGKERELVAAISFGGSTYYADSVKGRFTISRDNAKNTVYLQMNSLKPEDTAVYYCAVYGDSYWGAYYYSDGYWGQGTQVTVSS | low polyreactivity |
| QVQLVESGGGLVQAGGSLRLICAASGSTFGWYAMGWYRQAPGQERELVAAISWGGGSTYYADSVKGRFTISRDNAKNTVYLQMNSLKPEVTAVYYCAKVPLTYSRSGYEYDYWGQGTQVTVSS | low polyreactivity |
| QVQLVESGGGLVQAGGSLRLSCAASGFTFRDNAMGWYRQAPGKERELVAAITWDGGSTYYADSVKGRFTISRDNAKNTVYLQMYSLKPEDTAVYYCAASRYYPRYFKRYYYWGQGTQVTVSS | high polyreactivity |
| QVQLVESGGGLVQAGGILRLSCAASGRIFTSNPMGWYRQAPGKEREFVAAISGSGDGTYYADSVKGRFTISRDTAKNTVYLQMNSLKPEDTAVYYCAARRRGTYPYPMGYWGQGTQVTVSS | high polyreactivity |
| QVQLVESGGGLVQAGGSLRLSCAASGFIFKRYVMGWYRQAPGKERELVAGITRSGSSTSYADSVKGRFTISRDNAKNTVYLQMNSLKPEDTAVYYCAARAWKKLDYWGQGTQVTVSS | high polyreactivity |
| QEQLQETGGGLVQAGGSLRLICASSGSIFFVYGMGWSRQAPGKERELVAGINAGTNTNYADSVRGRFTISRDNAKYTVHLQMNSLKPEDTAVYYCAADGNGYQAHEYWGQGTQVTVSS | high polyreactivity |
| QVQLVESGGGLVQAGGSLRLSCAASGRIFYNYAMGWYRQAPGKERELLAAISWSGTSTYYADSVKGRFTISRDNAKNTVYLQMNSLKPEDTAVYYCATDRTYTARGYYLEYHRYDYRGQGTQVTVSS | low polyreactivity |
| QVQLVESGGGLDQAGGSLRLSCAASGRTFIGYAMGWYRQAPGKVRELVAAFNWSGARTYYADSVKGRFTISRDNAKNTVYLQMNSLKPEDTAVYYCAAVPVTSQTKYGYWGQGTQVTVSS | high polyreactivity |
| QVQLVESGGGLVQAGGSLRLSCAASGSTFRQYTMGWYRQAPGKERELVAAISRGCGNTYYADSVKGRFTISRDNAKNTVYLQMNSLKPEDTAVYYCAADRSYSGDSWGQGTQVTVSS | high polyreactivity |
| QVQLVESGGGLVQAGGSLRLSCAASGSTFWLNAMGWYRQAPGKERELVAAITGLGGSTYYADSVKGRFTISRDTAKNTVYLQMNSLKPEDTAVYYCAAGAYRRNKSDYYYWGQGTEVTVSS | low polyreactivity |
| QLQHVETGGGLVQAGGSLRLSCAASGSTFRSYVMGWYRQAPGKERELVAAISWITGSTYYADSVKGRFTISRDNAKNTVYLQMNSLKPEDTAVYDCAARYRTQSSLYYWGQGTQVTVSS | high polyreactivity |
| QVQLVESGGGLVQAGGTLPLSCAASGFTVRSYAMGWYRQAPGEEREIVAAISRLGDSTYFADSVKGRFTISRDNAKNTVYLQMYSLITEDTAVYYCAKYGIASRFSRFDSWGQGTQVTVSS | high polyreactivity |
| QVQRVESGGGLVQAGGSLRLSCAASGKIFGQYAMGRYRQAPGKEREFVAAITWSGGSTYYADSVKGRFTISRDNAKNTVYLQMNSLKPEDTAVYYCAADYGKTHRYDYDYWGQGTQVTVSS | low polyreactivity |
| QVQLVESGGGLVQAGGSLRLSCAASGIIFRYNAMGWSRQAPGKERELVATISKRGGSTRYADSVKGRFTISRDNAKNTVYLQMNSLKPEDTAVYYCAAQRPYYNGYDYWGQGTQVTVSS | high polyreactivity |
